Measurements as given in patent publication US20250195629A1, “SITE-SPECIFIC BRAIN THERAPEUTICS” (William Marsh Rice University, priority 2023, published 2025).

B1: AADC-IKVAV: aromatic-L-amino-acid decarboxylase (AADC) protein fused with short peptide IKVAV (SEQ ID NO: 23); CDS SEQ ID NO: 21 (protein)
chain: MRGSHHHHHHGMASMTGGQQMGRDLYDDDDKDPMNASEFRRRGKEMVDYMANYMEGIEGRQVYPDVEPGYLRPLIPAAAPQEPDTFEDIINDVEKIIMPGVTHWHSPYFFAYFPTASSYPAMLADMLCGAIGCIGFSWAASPACTELETVMMDWLGKMLELPKAFLNEKAGEGGGVIQGSASEATLVALLAARTKVIHRLQAASPELTQAAIMEKLVAYSSDQAHSSVERAGLIGGVKLKAIPSDGNFAMRASALQEALERDKAAGLIPFFMVATLGTTTCCSFDNLLEVGPICNKEDIWLHVDAAYAGSAFICPEFRHLLNGVEFADSFNFNPHKWLLVNFDCSAMWVKKRTDLTGAFRLDPTYLKHSHQDSGLITDYRHWQIPLGRRFRSLKMWFVFRMYGVKGLQAYIRKHVQLSHEFESLVRQDPRFEICVEVILGLVCFRLKGSNKVNEALLQRINSAKKIHLVPCHLRDKFVLRFAICSRTVESAHVQRAWEHIKELAADVLRAEREGGSGSSGGSGGSGGSGIKVAV
modifications: misc_feature 1..1602 Synthetic: AADC-IKVAV

Tested on: wild-type C57BL/6J mice
Test: Locomotor behavior test (open field) before and after L-DOPA
Assay type: in vivo, mouse
Excerpt: RAID neuromodulation provides an approach for precise modulation of brain activity through regionally activated interstitial drug delivery. It should be noted, site-specific, noninvasive methods hold promise for controlled behavioral modulation. As such, to evaluate long-term efficacy of RAID neuromodulation, RAID's ability to sustain behavioral control over time is described herein. In some embodiments, to measure effects of RAID neuromodulation on behavior, targeting dorsal striatum with two FUS sites are be analyzed. In some instances, effects of RAID neuromodulation by targeting dorsal striatum with two FUS sites can be used to increase an amount of on-target delivery of AADC in the CPu region that contains dopamine-responsive cells. […] With this in mind, in certain embodiments, a pair of AADC-IKVAV (SEQ ID NO: 23) and L-DOPA may be used to evaluate whether RAID can induce similar behavioral changes after the prodrug administration. In some embodiments, AADC-IKVAV (SEQ ID NO: 23) is delivered via FUS-BBBO to two sites in the left striatum region of wild type mice. FIG. 11a illustrates embodiments of RAID control of behavior through targeted neuromodulation including an experimental scheme for RAID-induced control of motor behavior by targeted activation of dopamine neurons, in accordance with embodiments described herein. As illustrated, FUS in two sites of the left striatum are used to deliver AADC-IKVAV (SEQ ID NO: 23) (250 mg/kg, i.v. injection) or PBS buffer control. After 2 days, open field test (OFT) was performed twice before and after a single injection of the prodrug L-DOPA (2 mg/kg, i.p.), allowing 200 minutes between each test. The locomotor activity was recorded for 15 min after a habituation period of 5 min in each test. After the testing, mice were perfused 2 h after L-DOPA administration for histologic examination of AADC-IKVAV (SEQ ID NO: 23) retention and neuron activation (c-Fos+) to confirm localize neuromodulation. As schematically depicted in FIG. 11a, the AADC protein fused with a short peptide IKVAV (SEQ ID NO: 23) (e.g., AADC-IKVAV (SEQ ID NO: 23)) to two sites in the left striatum of wild-type mice using FUS-BBBO. After 46 hours, the mice underwent an open field (OF) test to assess baseline locomotor activity over a 20-minute period. The mice were then returned to their home cages and, 100 minutes later, received an intraperitoneal injection of L-DOPA (2 mg/kg) before undergoing another OF test.
Locomotor behavior test—Two groups of mice underwent FUS-BBBO targeting two sites at left striatum immediately after intravenous injection of recombinant protein AADC-IKVAV (SEQ ID NO: 23) (n=14 mice for FUS+AADC-IKVAV group, 20 mg/mL, 250 mg/kg) or equivalent volume of PBS buffer (n=11 mice for FUS alone group). Another group without FUS-BBBO procedure served as wild type control (n=12 mice for WT group). After 46 h, the first session of behavioral test was performed in a custom-made non-transparent open field box (30.5 cm×30.5 cm) as a baseline. Each mouse was individually placed into the apparatus center with a light intensity and background noise at ˜320 lux and 46 dB (400 Hz peak), respectively. After a habituation period of 5 min, the locomotor activity of a freely-moving mouse was recorded for 15 min by a video tracking system (Stoelting Co.) consisting of an overhead camera connected to a computer with Any-Maze software. Behavioral measures include total distance traveled, average and maximum speed, freezing time and episodes, mobile/immobile time and episodes, clockwise and counterclockwise rotations and head turn angles. The mouse was returned to the home cage immediately after testing. After 90 min, the mice were intraperitoneally injected with carbidopa (25 mg/kg) and 10 min later L-DOPA (2 mg/kg) as described above. A second session of open field test 100 min after L-DOPA injection.

[1] = FUS+AADC-IKVAV alone, 46 h, vs WT and FUS alone

Molecule | decrease of clockwise (contralateral) rotation after L-DOPA (FUS alone group, L-DOPA 2 mg/kg i.p.) [%] | change in episodes of mobility after L-DOPA (control groups, FUS alone or wild type, L-DOPA 2 mg/kg i.p.) | reduction of counter-clockwise (ipsilateral) rotations after L-DOPA (control mice with FUS alone or no treatment, L-DOPA 2 mg/kg i.p.) | decrease of clockwise (contralateral) rotation after L-DOPA (untreated wild-type group, L-DOPA 2 mg/kg i.p.) [%] | counter-clockwise rotations before L-DOPA administration [1] | number of mobile episodes before L-DOPA administration [1] | clockwise (contralateral) rotation after L-DOPA (RAID treatment: FUS + AADC-IKVAV, L-DOPA 2 mg/kg i.p.) | decrease in mobile episodes after L-DOPA (RAID: FUS two sites left striatum + AADC-IKVAV 250 mg/kg i.v., 2 days, L-DOPA 2 mg/kg i.p.) [%] | reduction of counter-clockwise (ipsilateral) rotations after L-DOPA (full RAID treatment: FUS + AADC-IKVAV 250 mg/kg i.v., L-DOPA 2 mg/kg i.p.) [%]
N[C@@H](Cc1ccc(O)c(O)c1)C(=O)O [L-DOPA, reference compound] | 44±13 | no significant change | not in the control mice | 52±8 | – | – | – | – | –
B1 | – | – | – | – | no effect | no effect | prevented that decrease | 38±8 | 63±10
